For one substance, stoichiometry N results are on record in publication PMC3153463.

For this test, the target named is H103C mutant of RAV-1 IN CCD (RAV-1 IN CCD_(H103C)), residues 53-199 (Rous-associated virus type 1 (RAV-1)). Put plainly: cross-linking; engineered Cys103-Cys103 disulfide bond; denaturing SDS-PAGE in non-reducing conditions; mass spectrometry (MALDI-TOF) of tryptic peptides.

As to “H103C mutant of RAV-1 IN CCD (RAV-1 IN CCD_(H103C)), residues 53-199 (domain or fragment)”, the stoichiometry N (usually the number of molecules, sites or subunits per partner or assembly) worked out at 2.
